The text below walks through data of the Human Domainome abundance scans (Beltran et al. 2025).

± gives the uncertainty stated by the source.

This data set can be described thus: abundance fitness (aPCA) (normalised: wild type 0, dead -1); higher = more abundant; growth selection in yeast, the domain comes from the species named. The note with it: Homo sapiens.
“E3 ubiquitin-protein ligase NEDD4-like S225H, Q96PU5” had an abundance fitness of -0.264 ± 0.14.

With “E3 ubiquitin-protein ligase NEDD4-like S225I, Q96PU5”, the abundance fitness was -0.038 ± 0.1.

In turn, “E3 ubiquitin-protein ligase NEDD4-like S225K, Q96PU5” displayed an abundance fitness of 0.019 ± 0.095.

The substance “E3 ubiquitin-protein ligase NEDD4-like S225L, Q96PU5” showed an abundance fitness of -0.095 ± 0.056.

“E3 ubiquitin-protein ligase NEDD4-like S225M, Q96PU5”: the abundance fitness was -0.136 ± 0.092.

“E3 ubiquitin-protein ligase NEDD4-like S225P, Q96PU5” displayed an abundance fitness of 0.018 ± 0.083.

Substance “E3 ubiquitin-protein ligase NEDD4-like S225Q, Q96PU5” registered an abundance fitness of 0.048 ± 0.063.

As to “E3 ubiquitin-protein ligase NEDD4-like S225R, Q96PU5”, the abundance fitness was -0.024 ± 0.064.

“E3 ubiquitin-protein ligase NEDD4-like S225T, Q96PU5” came in with an abundance fitness of -0.066 ± 0.079.

Consider “E3 ubiquitin-protein ligase NEDD4-like S225V, Q96PU5”, for which the abundance fitness is -0.018 ± 0.076.

“E3 ubiquitin-protein ligase NEDD4-like S225W, Q96PU5” gave an abundance fitness of -0.312 ± 0.068.

“E3 ubiquitin-protein ligase NEDD4-like S225Y, Q96PU5” registered an abundance fitness of -0.395 ± 0.12.

Substance “E3 ubiquitin-protein ligase NEDD4-like S230A, Q96PU5” displayed an abundance fitness of -0.024 ± 0.058.

Take “E3 ubiquitin-protein ligase NEDD4-like S230C, Q96PU5”: the abundance fitness was -0.067 ± 0.066.

Turning to “E3 ubiquitin-protein ligase NEDD4-like S230D, Q96PU5”, the abundance fitness is -0.023 ± 0.095.

Substance “E3 ubiquitin-protein ligase NEDD4-like S230E, Q96PU5” had an abundance fitness of -0.034 ± 0.066.

Substance “E3 ubiquitin-protein ligase NEDD4-like S230F, Q96PU5” had an abundance fitness of -0.139 ± 0.11.

Take “E3 ubiquitin-protein ligase NEDD4-like S230G, Q96PU5”: the abundance fitness is -0.081 ± 0.054.

Substance “E3 ubiquitin-protein ligase NEDD4-like S230H, Q96PU5” came in with an abundance fitness of -0.002 ± 0.09.

“E3 ubiquitin-protein ligase NEDD4-like S230I, Q96PU5”: the abundance fitness is -0.274 ± 0.13.

Consider “E3 ubiquitin-protein ligase NEDD4-like S230K, Q96PU5”, for which the abundance fitness is -0.186 ± 0.092.

On to “E3 ubiquitin-protein ligase NEDD4-like S230L, Q96PU5”, for which the abundance fitness is -0.29 ± 0.071.

The substance “E3 ubiquitin-protein ligase NEDD4-like S230N, Q96PU5” registered an abundance fitness of 0.108 ± 0.071.

As for “E3 ubiquitin-protein ligase NEDD4-like S230P, Q96PU5”, the abundance fitness was -0.027 ± 0.085.

“E3 ubiquitin-protein ligase NEDD4-like S230Q, Q96PU5”: the abundance fitness turned out to be 0.025 ± 0.077.

“E3 ubiquitin-protein ligase NEDD4-like S230R, Q96PU5”: the abundance fitness was -0.095 ± 0.066.

Regarding “E3 ubiquitin-protein ligase NEDD4-like S230T, Q96PU5”, the abundance fitness was -0.051 ± 0.067.

Consider “E3 ubiquitin-protein ligase NEDD4-like S230V, Q96PU5”, for which the abundance fitness was -0.136 ± 0.059.

The substance “E3 ubiquitin-protein ligase NEDD4-like S230W, Q96PU5” yielded an abundance fitness of -0.496 ± 0.085.

The substance “E3 ubiquitin-protein ligase NEDD4-like S230Y, Q96PU5” gave an abundance fitness of -0.204 ± 0.12.

Turning to “E3 ubiquitin-protein ligase NEDD4-like S231A, Q96PU5”, the abundance fitness was -0.099 ± 0.075.

The substance “E3 ubiquitin-protein ligase NEDD4-like S231C, Q96PU5” returned an abundance fitness of -0.142 ± 0.09.

Take “E3 ubiquitin-protein ligase NEDD4-like S231D, Q96PU5”: the abundance fitness was -0.425 ± 0.11.

“E3 ubiquitin-protein ligase NEDD4-like S231E, Q96PU5” showed an abundance fitness of 0.134 ± 0.089.

“E3 ubiquitin-protein ligase NEDD4-like S231F, Q96PU5” displayed an abundance fitness of -0.275 ± 0.11.

“E3 ubiquitin-protein ligase NEDD4-like S231G, Q96PU5”: the abundance fitness was -0.049 ± 0.064.

“E3 ubiquitin-protein ligase NEDD4-like S231H, Q96PU5”: the abundance fitness was -0.331 ± 0.13.

With “E3 ubiquitin-protein ligase NEDD4-like S231I, Q96PU5”, the abundance fitness came out at 0.087 ± 0.12.

“E3 ubiquitin-protein ligase NEDD4-like S231K, Q96PU5” returned an abundance fitness of -0.273 ± 0.15.

For the substance “E3 ubiquitin-protein ligase NEDD4-like S231L, Q96PU5”, the abundance fitness was determined as 0.002 ± 0.088.

In the case of “E3 ubiquitin-protein ligase NEDD4-like S231M, Q96PU5”, the abundance fitness is -0.222 ± 0.08.

“E3 ubiquitin-protein ligase NEDD4-like S231N, Q96PU5” returned an abundance fitness of -0.385 ± 0.12.

Regarding “E3 ubiquitin-protein ligase NEDD4-like S231P, Q96PU5”, the abundance fitness is -0.008 ± 0.08.

For the substance “E3 ubiquitin-protein ligase NEDD4-like S231Q, Q96PU5”, the abundance fitness was found to be 0.242 ± 0.14.

As for “E3 ubiquitin-protein ligase NEDD4-like S231R, Q96PU5”, the abundance fitness was 0.002 ± 0.074.

Turning to “E3 ubiquitin-protein ligase NEDD4-like S231T, Q96PU5”, the abundance fitness came to 0.139 ± 0.098.

“E3 ubiquitin-protein ligase NEDD4-like S231V, Q96PU5” showed an abundance fitness of -0.062 ± 0.067.

Consider “E3 ubiquitin-protein ligase NEDD4-like S231Y, Q96PU5”, for which the abundance fitness was -0.228 ± 0.11.

As to “E3 ubiquitin-protein ligase NEDD4-like T209C, Q96PU5”, the abundance fitness is -0.146 ± 0.067.

As for “E3 ubiquitin-protein ligase NEDD4-like T209D, Q96PU5”, the abundance fitness is -0.311 ± 0.072.

“E3 ubiquitin-protein ligase NEDD4-like T209E, Q96PU5” had an abundance fitness of -0.31 ± 0.078.

As for “E3 ubiquitin-protein ligase NEDD4-like T209F, Q96PU5”, the abundance fitness was -0.325 ± 0.083.

In turn, “E3 ubiquitin-protein ligase NEDD4-like T209G, Q96PU5” had an abundance fitness of -0.305 ± 0.062.

As to “E3 ubiquitin-protein ligase NEDD4-like T209H, Q96PU5”, the abundance fitness was -0.32 ± 0.11.

“E3 ubiquitin-protein ligase NEDD4-like T209I, Q96PU5”: the abundance fitness was -0.036 ± 0.088.

As for “E3 ubiquitin-protein ligase NEDD4-like T209L, Q96PU5”, the abundance fitness was -0.095 ± 0.073.

“E3 ubiquitin-protein ligase NEDD4-like T209M, Q96PU5” yielded an abundance fitness of -0.093 ± 0.1.

As for “E3 ubiquitin-protein ligase NEDD4-like T209N, Q96PU5”, the abundance fitness is -0.095 ± 0.092.

In turn, “E3 ubiquitin-protein ligase NEDD4-like T209P, Q96PU5” yielded an abundance fitness of -0.002 ± 0.059.

For the substance “E3 ubiquitin-protein ligase NEDD4-like T209Q, Q96PU5”, the abundance fitness was -0.21 ± 0.095.

Consider “E3 ubiquitin-protein ligase NEDD4-like T209R, Q96PU5”, for which the abundance fitness was -0.096 ± 0.058.
